Three molecules from patent US20140193420A1 (UNIVERSITY OF TOKYO, published 2014) can be followed below.

Test [1] has as its target T1, GST-ITM2A-L (GST fusion of the ITM2A extracellular region Tyr75-Glu263, C-terminally His-tagged) (human).
T1 construct: Expressed in E. coli, solubilized and purified in 8 M urea buffer, coated on the ELISA plate
The test can be described thus: ELISA, coated GST-ITM2A-L. The method, then:
(§1) Each anti-ITM2A monoclonal antibody prepared in Example 2 was evaluated for its binding to GST-ITM2A-L and GST-ITM2A-S by ELISA. First, 100 μL each of GST-ITM2A-L and GST-ITM2A-S solutions having a concentration of 3 μg/mL was added to each well of a 96-well plate for ELISA (Nunc-Immuno Plate, Thermo Fisher Scientific K.K.) to coat the well with GST-ITM2A-L or GST-ITM2A-S. The coated well was blocked with a buffer containing 1% bovine serum albumin. Then, 100 μL each of solutions of the antibodies BE5-1, BE6-1, BE7-1-1, and BE13-1 diluted with the same buffer as above was added to each well. The plate was incubated at room temperature for 1 hour. The positive control used was an anti-His antibody (mouse IgG1, Santa Cruz Biotechnology, Inc.). The negative control used was mouse IgG1 (BD Pharmingen). Each antibody was diluted into 8 dilutions at a common ratio of 3.16 from a concentration of 1 μg/mL. After reaction with a secondary antibody (alkaline phosphatase-goat anti-mouse IgG (Gamma), Invitrogen Corp.), a substrate (phosphatase substrate, Sigma-Aldrich Corp.) was added to each well. Color developed by the reaction solution in each well was determined by the measurement of absorbance at 405 nm to 655 nm.

The target in test [2] is T2, C-terminally HA-tagged ITM2A expressed on CHO cells (ITM2A_CHO) (human, UniProt O43736 1-263).
T2 construct: Type II membrane protein on DG44 CHO cells; also called ITM2A-HA; ITM2A-expressing CHO cells
The test can be described thus: flow cytometry on ITM2A_CHO cells. The method, then: (§2) Each anti-ITM2A monoclonal antibody prepared in Example 2 was assayed for its binding to ITM2A-furin by flow cytometry (FACS). The cells used were ITM2A-furin_CHO prepared in the paragraph (4-1), ITM2A_CHO prepared in the paragraph (2-4), and host cells CHO. These cells were separately suspended in PBS supplemented with 0.2% bovine serum albumin and 0.1% NaN3 (FACS buffer). To each cell suspension, the antibody BE5-1, BE6-1, BE7-1-1, or BE13-1, mouse IgG1, or an anti-HA antibody (clone HA-7, mouse IgG1, Sigma-Aldrich Corp.) was added, and the resulting cell suspension was incubated for 1 hour on ice. Each antibody was diluted into 6 dilutions at a common ratio of 5 from a concentration of 10 μg/mL. After washing of the cells with a FACS buffer, an FITC-labeled anti-mouse IgG antibody (Goat F(ab′)2 Fragment Anti-mouse IgG (Fcγ)-FITC, Beckman Coulter, Inc.) was added thereto as a secondary antibody. The resulting cell suspension was incubated for 1 hour on ice. The cells were washed with a FACS buffer, then suspended in a FACS buffer supplemented with 10 μg/mL propidium iodide (PI, Sigma-Aldrich Corp.), and subjected to assay using a flow cytometer. The assay data was analyzed using CELLQuest software (Becton, Dickinson and Company) to evaluate a PI-negative live cell population.
On the technique in general: In flow cytometry, cells or beads pass a laser one at a time.

Test [3] deals with T3, C-terminally HA-tagged mouse ITM2A expressed on CHO cells (mITM2A_CHO) (mouse, UniProt Q61500 1-263).
T3 construct: also called mITM2A-HA; mouse ITM2A-expressing CHO cells
The test can be described thus: flow cytometry on mITM2A_CHO cells.

Test [4] has as its target T4, GST-ITM2A-S (GST fusion of ITM2A Tyr75-Lys182, C-terminally His-tagged) (human).
T4 construct: Expressed in E. coli, solubilized and purified in 8 M urea buffer, coated on the ELISA plate
The test can be described thus: ELISA, coated GST-ITM2A-S. How it is done:
as §1
In general terms: ELISA stands for enzyme-linked immunosorbent assay.

Test [5] has as its target T5, ITM2A-furin (Met1 to Leu227 of ITM2A with an HA tag added downstream) expressed on CHO cells (ITM2A-furin_CHO) (human, UniProt O43736 1-227).
T5 construct: C-terminally truncated ITM2A on DG44 CHO cells; also called ITM2A-furin-HA; ITM2A-furin-expressing CHO cells
The test can be described thus: flow cytometry on ITM2A-furin_CHO cells. The method, then:
as §2

For test [6], the target named is T6, human ITM2A protein (endogenous, on human cancer cell lines) (human, UniProt O43736 1-263).
T6 construct: also called NP-004858.1
The test can be described thus: flow cytometry on human cancer cell lines, BE6-1 at 10 µg/mL, mouse IgG1 as negative control. The method, then:
as §2
The expression of ITM2A was assayed in human cancer cell lines by FACS. […]

For test [7], the target named is T2, C-terminally HA-tagged ITM2A expressed …. The test can be described thus: flow cytometry screening of hybridoma supernatants on ITM2A_CHO against parent CHO cells.

T2 sequence (O43736 other isoform, or with tags, fused parts or gaps): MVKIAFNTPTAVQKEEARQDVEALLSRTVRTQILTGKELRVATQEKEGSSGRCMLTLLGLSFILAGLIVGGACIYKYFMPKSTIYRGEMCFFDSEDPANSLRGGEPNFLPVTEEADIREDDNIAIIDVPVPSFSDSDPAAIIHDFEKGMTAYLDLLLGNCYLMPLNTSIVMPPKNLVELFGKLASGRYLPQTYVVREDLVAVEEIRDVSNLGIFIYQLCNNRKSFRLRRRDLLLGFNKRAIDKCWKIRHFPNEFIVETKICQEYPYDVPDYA
T3 sequence (Q61500 other isoform, or with tags, fused parts or gaps): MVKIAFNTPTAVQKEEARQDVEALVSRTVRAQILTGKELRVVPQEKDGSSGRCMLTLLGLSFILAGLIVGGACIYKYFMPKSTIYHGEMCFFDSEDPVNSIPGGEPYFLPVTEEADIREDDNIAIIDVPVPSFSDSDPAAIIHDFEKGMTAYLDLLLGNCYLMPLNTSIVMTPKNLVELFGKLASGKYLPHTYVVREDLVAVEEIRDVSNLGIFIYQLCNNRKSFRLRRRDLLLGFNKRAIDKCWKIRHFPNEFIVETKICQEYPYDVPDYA
T1 sequence (chain, as listed by the source limits assumed): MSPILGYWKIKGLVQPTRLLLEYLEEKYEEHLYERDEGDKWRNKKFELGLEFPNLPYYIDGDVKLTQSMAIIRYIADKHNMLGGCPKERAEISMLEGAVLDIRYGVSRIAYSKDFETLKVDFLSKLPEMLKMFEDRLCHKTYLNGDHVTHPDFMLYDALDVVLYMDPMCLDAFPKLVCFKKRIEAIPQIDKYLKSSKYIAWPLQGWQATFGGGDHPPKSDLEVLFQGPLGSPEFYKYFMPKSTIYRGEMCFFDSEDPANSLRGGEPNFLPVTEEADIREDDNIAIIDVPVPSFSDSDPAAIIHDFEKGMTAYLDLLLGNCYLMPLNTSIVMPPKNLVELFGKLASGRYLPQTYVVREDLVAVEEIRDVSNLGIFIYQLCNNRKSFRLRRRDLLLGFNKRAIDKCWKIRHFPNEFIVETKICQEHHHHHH
T4 sequence (chain, as listed by the source limits assumed): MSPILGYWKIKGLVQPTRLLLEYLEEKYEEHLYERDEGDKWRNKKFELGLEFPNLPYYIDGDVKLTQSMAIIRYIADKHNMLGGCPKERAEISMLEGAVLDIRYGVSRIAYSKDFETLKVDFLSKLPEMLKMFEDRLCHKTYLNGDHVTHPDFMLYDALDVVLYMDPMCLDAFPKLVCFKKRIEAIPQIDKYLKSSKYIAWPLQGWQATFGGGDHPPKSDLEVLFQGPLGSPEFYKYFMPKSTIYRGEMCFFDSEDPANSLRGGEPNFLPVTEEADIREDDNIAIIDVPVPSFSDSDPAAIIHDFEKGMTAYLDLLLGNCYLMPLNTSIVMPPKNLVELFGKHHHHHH
T5 sequence (O43736 other isoform, or with tags, fused parts or gaps limits assumed): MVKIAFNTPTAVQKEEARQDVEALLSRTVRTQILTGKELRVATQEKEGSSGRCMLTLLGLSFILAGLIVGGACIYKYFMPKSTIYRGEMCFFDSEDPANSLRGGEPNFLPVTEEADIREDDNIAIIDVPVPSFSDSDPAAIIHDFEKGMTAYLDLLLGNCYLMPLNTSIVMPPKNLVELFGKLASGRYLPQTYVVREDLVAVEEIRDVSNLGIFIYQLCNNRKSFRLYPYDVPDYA
T6 sequence (O43736 whole entry): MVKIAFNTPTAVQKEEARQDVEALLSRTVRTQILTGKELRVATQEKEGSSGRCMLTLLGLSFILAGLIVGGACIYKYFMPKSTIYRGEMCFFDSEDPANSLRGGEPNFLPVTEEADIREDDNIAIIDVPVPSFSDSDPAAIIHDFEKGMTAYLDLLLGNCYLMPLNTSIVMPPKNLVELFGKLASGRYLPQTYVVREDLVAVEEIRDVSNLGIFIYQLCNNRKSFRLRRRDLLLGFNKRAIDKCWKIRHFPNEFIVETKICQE

B1: anti-ITM2A monoclonal antibody BE13-1 (antibody, mouse IgG1, V domains shown)
VH: EVQLQQSGPELVKPGASVRMSCKASGYTFTDYYMKWVKQSHGKSLEWIGDINPNNGGLSYNQKFKGKATLTVDKSSSTAYMQLASLTSEDSAVYYCAIWSGAYWGQGTLVTVSA
VL: not shown
Regarding B1, the binding result in test [1], in test [2] and in test [3] was “binds” in each case.

B2: anti-ITM2A monoclonal antibody BE6-1 (antibody, mouse IgG1, V domains shown)
VH: EVQLQQSGPELVKPGASVKISCKTSGYTFTEYTMHWVKQSHGKSLEWIGGINPNNGDTSYNQKFKGKATLTVDKSSITAYMELRSLTSEDSAVYYCARGPFAYWGQGTLVTVST
VL: DVVMTQTPLSLPVSLGDQASISCRSSQSLVHSNGNTYFHWYLQKPGQSPKFLIYKVSNRFFGVPDRFSGSGSGTDFTLKISRVEAEDLGVYFCSQTTHFPFTFGSGTKLEIK
B2: the binding result is reported as “binds” in test [1]; “binds” in test [4]; “binds” in test [2]; “no binding” in test [3]; “binds” in test [5]; “binds” in test [6].

B3: anti-ITM2A monoclonal antibody BE5-1 (antibody, mouse IgG1, V domains shown)
VH: QVQLVETGGGLVRPGNSLKLSCVTSGFTFSDYRMHWLRQSPGKRLEWIAVITGKSDNYGASYAESVKGRFTISRDDSKSSVYLQMNRLREEDTATYYCSRRDYWGQGTSVTVSS
VL: DIVMTQAAPSVPVTPGESVSISCRSSKSLLHSNGNTYLYWFLQRPGQSPQLLIYRMSNLAPGVPDRFSGSGSGTAFTLRISRVEAEDVGVYYCMQHLEYPFTFGAGTKLELK
Turning to B3, the binding result in test [1], in test [4], in test [3], in test [5] and in test [7] was “binds” each time.
